Source: the nanobody polyreactivity screen of Harvey et al. (2022)

Experiment: yeast display, Sf9 membrane polyspecificity reagent, FACS + sequencing; frameworks hold sequencing errors
Outline: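 Nanobodies from a synthetic yeast display library (Saccharomyces cerevisiae BJ5465), induced 36–48 hours with galactose, were stained 1 hour at 4 °C with 10% biotinylated, detergent-solubilized Sf9 membrane reagent, enriched on streptavidin microbeads, then FACS-sorted. Anti-HA (expression) and streptavidin (reagent binding) fluorescence set low and high (top ~1%) gates. Polyreactivity labels come from the gate of origin. Genes were colony-PCR amplified, MiSeq 2 × 250 sequenced and filtered by CDR length.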

Sequence | polyreactivity (PSR sort gate)
QVQLVESGGGLVQAGGSLRLSCAASGSIFYRYAMGWYRQAPGKERELVAAISYNGGRTYYADSVKGRFTISRDNAKNTVYLQMNSLKPEDTAVYYCNAAGRDDAYDYWGQGTQVTVSS | high polyreactivity
HVLLQESGGGLVQAGGTLRLSCAASGTITTDIRMGWYRLAPGKEREFVASIDGCSTTYYADSVKGRFTISRDNAKNTVYLQMNSLKPEDTAMYYCAAREATEFYLFYWGQGTQVTVSS | low polyreactivity
QVQLVESGGGLVQAGGSLRLSCAASGFTFHNNVMGWYRQAPGKERELVATISKSGGSTYYADYVKGRFTISRDNAKNTVYLQMKSLKPEDTAVYYCARRYRDYGRYGYWGQGTQVTVSS | high polyreactivity
QVQLVESGGGLVQAGGSLRLSCAASGRTFLYYAMGWFRQAPGKERELVAAISASGGSTYYADSVKGRFTISRDNAKNTVYLQMNSLKPEETAVYSCARYTGWGSRYDYWGQGTQVTVSS | high polyreactivity
QVQLVESGGGLVQAGGSLRLSCAASGFTFGYYVMGWYRQEPGKERELVAAITVSGASTYYADSVKGRFTISRDNAKNTVYLQMNSLKPEDTAVYYCAKRGYFPALRQSYYYWGQGTQVTVSS | high polyreactivity
QVQLVESGGGLVQAGGSLRLSCAASGRTFQRYTMGWYRQAPGKERELVASISRSGGSTYYADSVKGRFTISRDNAKNTVYLQMNSLKPEDTAVYYCATRSLFWNRNHYRVSSPVLYDYWGQGTQVTVSS | high polyreactivity
QVQLVESGGGLVQAGGSLRLSCAASGFTFRYYPMGWYRQAPGKERELVAAISWDRDSTYYADSVKGRFTISRDHAKHTVYFQMNSLKPEDTAVYYCAPEYRSWGRYRYRFNYWGQGTQVTVSS | high polyreactivity
QVQLVESGGGLVQAGGSLRLSCAASGGTFYEYVMGWDRQAPGKERELVAAISWGDGSTYYADSVKGRFTISRDNAKNTVYLQMNSLKPEDTAVYYCAADHTVFTYEYWGQGTQVTVSS | high polyreactivity
QVQLVESGGGLVQAGGSLRLSCASSGFTFLINAMGWYRQAPGKERDLVAAIRSGGSTNYADSVKGRFTISRDNAKNTVYLQMNSLKPEDTAVYYCAARRYYPYKYRYGYWGQCTQVTVSS | high polyreactivity
QVQLVESGGGLVQAGGSLRLSCAASGRTFYSNAMGWYRQAPGKERELVAGISKRGTITYYADSVKGRFTISRDNAKNTVYLQMNSLKPEDTAVYYCAVGRPSGWSYYTGGDYWGQGTQVTVSS | high polyreactivity
QVQLVESGGGLVQAGGSLRLICAASGSIFTYYAMGWYRQAPGKDRDLVAAINWSGGSTYYADSVKGRFTISRDNAKNTVYLQINSLNPEDTAVYYCSNDYYARRHSPRYDYWGQGTQVTVSS | low polyreactivity
QVQLEESGGGLVQAGGSLRLSCAASGRIFSRYAMGGYRQAPGKERELVAAITQSGTSTYYADSVKGRFTISRDNAKNTVYLQMNSLKPEDTAVYYCNAYRQYRYDYWGQGTQVTVSS | low polyreactivity
QFQLVESGGGLVQAGGSLRLSCAASGRIFYLYAMGWYRQAPGKERELVAGITSGGRTNYADSVKGRFTISRDNGKNTVFLQMNSLKPEDSAVYYCAAGSLRYKYDYWGQGTQVTVSS | high polyreactivity
QVQLVETGGGLVQAGGSLRLSCAASGSIQWNAMGWYRQAPGKERELVAVINTGGSTYADSVKGRFTISRDNAKNTVYLQMNMLKPEDTAVFYCAARVPFTLLKGKQYGYWGQGTQVTVSS | low polyreactivity
QVQLVESGGGLVQAGGSLRLSCAASGRIFGRYAMGWSRQAPGKERELVAAIRWSVGSTYYADSVKGRFTISRDNAKNTVYLQMNSLKPEDTAVYYCAADIRQSIMDYWGQGTQVTVSS | high polyreactivity
QVQLVESGGGLVQAGGSLRLSCAASGRIFRPYTMGWYRQAPGKEWELVAAISIGGRTYYADSVKGRFTISRDNAKNTVYLKMNSLKPEDTAVYYCAAVGGSDRRARPGRAVDYWGQGTQVTVSS | high polyreactivity
QVQLVEAGGGLVQAGGSLRLSCAASGSIFFIYAMGWYRQAPGKERELVAAITSGDRTYYADSVKGRFTISRDNAKNTVYLQMNSLKPEDTAVYYCNADYYISYWGQGTQVTVSS | low polyreactivity
QVQLVESGGGLVQAGGSLRLSCAASGRIFPRYAMGWYRQAPGKERELVAAISWSGGRTYYADSVKGRFTISRDNAKNTVYLQMNSLKPEDTAVYYCAKYVGWYGSPGYDYWGQGTHVTVSS | low polyreactivity
QVQLVESGGGLVQAGGSLRLSCAASGSIFSPYAMGWYRQAPGKERELDASISSGTSTNYADSVKGRFTISRDNAKNTVYLQMNSLKPEDTAVYYCNAGADSTVRNYVTSFSQYDYWGQGTQVTVSS | low polyreactivity
QVQLVESGGGLVQAGGSLRLSCAASGSIFRGYAMGWYRQAPGKERELVAAITSSGGSTNYADSVKGRFTISRDNAKNTVYLQMNSLKPEDTAVYYCNATSEEVAEYDYWGQGTQVTVSS | low polyreactivity
QVQLVESGGGLFQAGGSLRLSCAASGRIFGAYTKRSYRQAPGKERELVAAITGRGGGTYYADSVKGRFTISRDNAKNTVYLQMNSLKPEDTAVYYCNVKLYYYYFRMYYWGQGTQVTVSS | low polyreactivity
QDQLVDSGGGLVQAGGSLRLSCAASGSTFYYYTMGWYRQAPGKEGELVAAITSGGSTYYADSVKGRFTISRDNAKNTVYLQLNSLKPEDTAVYYCAADLRRNGWGFDYWGQGTQVTVSS | high polyreactivity

Sequence | polyreactivity (PSR sort gate)
QVQLVESGGGLVQAGGRLRLSCAASGRTFRKYTMGWYRQAPGKEREFDAAITYSGGSTYYADSVKGRFTISRDNAKNTVYLQMNSLKPEDTAVYYCVTRGGYYLYYSYYYWGQGTQVTVSS | high polyreactivity
QVELVESGGGLVQAGGSLRLSCAASGRTFTPYAMGWYRQAPGKEREFVAAISIVGRTKYADSVKGRFTISRDNAKNTVYLQMNSLKPEDTAVYYCNAQDSRDRKFYWGYTRGHWGQGTQVTVSS | low polyreactivity
QVQLVESGGGLVQAGGSLRLSCAASGSTFYPYAMGWYRPAPGKERELVAGITSSGGSTYYADSVKGRFTISRDNAKNTVYLQMISLKPEDTAVYYCNAYIDALPVSYQYDYWGQGTQVTVSS | low polyreactivity
QVQLVESGGGLVQAGGSLRLSCAASGSTFAYYAMGWYRQAPGKERELVAAITWSGGRTYYADSVKGRFTISRDNAKNTVYLQMNSLKPEDTAVYYCAAGQQHSLFRVPQYRNRAFYYWGQGTQVTVSS | high polyreactivity
QVQLVESGGGLVQAGGSLRLSCAASGRTFPGNAMGWYRQAPGKERELVAAISRRGGTTYYADSVKGRFTITRDNAKNTVYLQMNSLKPEDTAVYYCAKSYRDYGISDFDYWGQGTQVTVSS | high polyreactivity
QVQLVESGGGLVHAGCSLRLSCAASGNIFYAYAMGWYRQAPGKERELVAAISWSGDSTYYADSVKGRFTISRDNAKNTVYLQMNSLKPEDTAVYYCAARKVTYHYQWMDYWGQGSQVTVSS | low polyreactivity
KGQLVESGGGLVQEGGSLRLSCAASGNTFVNNHMVWYRQAPGEERELVAAISRRAGSTYYADSVKGRFTISRENAKNTVYIQKNSLKPEENAVYYCAARGSRYYYVQGASKYDYWGQGTQVTVSS | high polyreactivity
QVQLVESGGGLVQAGGSLRLSCAASGSTFNAYAMGWYRQAPGKERELVAAITDGDSTNYADSVKGRSTISRDNAKNTVYLQMNSLKPEDTAVYYCAKDSSVGDGDDGWVWFDLYYWGQGTQVTVSS | low polyreactivity
QVHLVESGGGLVQAGCSLRLRSAASGRIFSRNAMGRYRQAPGKERELVAAISTGGTTNYADSVKGRFTISRDNANNTVYLQMNSLKPEDTALYYCNAGLLRRRMDYWGQGTQVTVSS | high polyreactivity
QVQLVESGGGLVQAGGSLRLSCAASGFTFYAYAMGWYRQAPGKERELVAAISGSGGRTYYADSVKGRFTISRDNAKNTVYLQMNSLKPEDTAVYYCAADRPGGSYDYWGQGTQVTVSS | high polyreactivity
QVQLVESGGGLVQAGGSLRLSCAASGSTLQGYAMGWYRQAPGKERELVAAISRSGGSTYYADSVKGRFTISRDNAKNTVYLQMNSLKPEDTAVYYCNRVAGGRRKGPWSYQYDYWGQGPQVTVSS | high polyreactivity
QVQLVDSGGGLVQAGGSLRLSCHASGRIVTSNAMGWYRQAPGKERELVAAISWSGGSTYYADSVKGRFTISRDNAKNTVYLQINSLKPEDTAVYYCAAYGTKWGRGFYITGYGYWGQGTQVTVSS | low polyreactivity
QVQVVESGGGLVQAGGSLRLSCAASGINFLTNAMGWYRQAPGKERELVAAISQSGGSTYYADSVKGRFTISRDHAKNTVYLQMNSLKPEDTAVYYCAAPQRYPRFYYWGQGTQVTVSS | high polyreactivity
QVQLVESGGGLVQAGGSLRLSCAASGRTFANNVMGWYRQAPGKEREFVAAISRSGGITYYADSVKGRFTISRDNAKNTVYLQMNSLKPEDTAVYYCNAEWPFIYRLYRVQHGNDYWGQGTQVTVSS | low polyreactivity
QVQLQESGGGLVQAGGSLRLSCAASGSISRYYDMGWYRQAPGKEREFVAGISGGAITYYADSVKGRFTISRDNAKNTVYLQMNSLKPEDTAVYYCAADPGVYQYHSYWGQGTQVTVSS | low polyreactivity
QVQLVESGGGLVQAGGSLRLSCAASGSIFYPYAMGWYRQAPGKERELVAAISSSGGSTYYADSVKGRFTISRDTAKNTVYLQMNSLKPEDTAVYYCAARGKKHAYDYWGQGTQVTVSS | low polyreactivity
QVQLVESGGGLVQAGGSLRLSCAASGLTFVYNAMGWYRQATGKERELVAAISRVGSTNYADSVKGRFTISRDNAKYTVYLQLNSLKPADTAVYYCNKGNAYVVYTSGYDYWGQGTQVTVSS | low polyreactivity
QVQLVESGGGLVQAGGSLRLSCAASGFTFRIYDMGWYRQAPGKERELVAAITNGGSTDYAYSVKGRFTISRDNAKNTVYLQMNSLKTEDNAVYYCAADVTYQVYDLVSVWYDYWGQGTQVTVSS | low polyreactivity
QVQLVESGGGLVQAGGSLRLSCAASGRTFPYNAMGWYRQAPGKERELVAVISSSGGSTYYADSVKGRFTISRDNAKNTVYLQMNSLKPEDTAVYYCNTRPYYYRRPGYRYSGYDYWGQGTQVTVSS | high polyreactivity
QVQLVESGGGLVQAGGSLRLSCAASGRIFLRNAMGWYRQAPGKERELVATITSRGGSTYYADSVKGRFTISRDNAKTTVYLQMNSLKPEDTAVYYCAADPRRYRGFGYVYGGFYYWGQGTQVTVSS | low polyreactivity
QVQLVESGGGLVQAGGSLRLSCPASGITFIYYAMGWYRQAPGKEREFVAAINYRGTSTYYADSVKGRFTISRDNPKNTVYLQMNSLKPEDTAVYYCAAGPRRTWYRSLGYSFYKYYYWGQGTQVTVSS | high polyreactivity
